For experiment [1], the target named is T1, fibrinogen (Homo sapiens, UniProt P02671+P02675+P02679).
T1 sequence (P02671 20-629 limits assumed): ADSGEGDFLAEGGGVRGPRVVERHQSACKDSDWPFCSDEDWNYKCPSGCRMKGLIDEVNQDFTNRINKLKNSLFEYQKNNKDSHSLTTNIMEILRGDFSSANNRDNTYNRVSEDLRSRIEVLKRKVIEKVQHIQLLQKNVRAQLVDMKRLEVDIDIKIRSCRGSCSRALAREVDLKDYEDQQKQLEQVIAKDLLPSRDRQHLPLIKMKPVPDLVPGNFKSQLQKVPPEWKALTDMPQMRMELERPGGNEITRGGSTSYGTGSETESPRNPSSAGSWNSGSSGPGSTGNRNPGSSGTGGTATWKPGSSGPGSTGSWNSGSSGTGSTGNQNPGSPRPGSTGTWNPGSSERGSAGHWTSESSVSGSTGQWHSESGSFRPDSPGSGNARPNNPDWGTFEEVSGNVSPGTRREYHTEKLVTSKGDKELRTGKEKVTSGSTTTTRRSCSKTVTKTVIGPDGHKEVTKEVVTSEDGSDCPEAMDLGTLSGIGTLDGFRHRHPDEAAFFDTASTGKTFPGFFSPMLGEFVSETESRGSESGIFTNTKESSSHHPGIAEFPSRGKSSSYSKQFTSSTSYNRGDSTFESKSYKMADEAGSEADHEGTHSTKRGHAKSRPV
T1 sequence (P02675 31-491): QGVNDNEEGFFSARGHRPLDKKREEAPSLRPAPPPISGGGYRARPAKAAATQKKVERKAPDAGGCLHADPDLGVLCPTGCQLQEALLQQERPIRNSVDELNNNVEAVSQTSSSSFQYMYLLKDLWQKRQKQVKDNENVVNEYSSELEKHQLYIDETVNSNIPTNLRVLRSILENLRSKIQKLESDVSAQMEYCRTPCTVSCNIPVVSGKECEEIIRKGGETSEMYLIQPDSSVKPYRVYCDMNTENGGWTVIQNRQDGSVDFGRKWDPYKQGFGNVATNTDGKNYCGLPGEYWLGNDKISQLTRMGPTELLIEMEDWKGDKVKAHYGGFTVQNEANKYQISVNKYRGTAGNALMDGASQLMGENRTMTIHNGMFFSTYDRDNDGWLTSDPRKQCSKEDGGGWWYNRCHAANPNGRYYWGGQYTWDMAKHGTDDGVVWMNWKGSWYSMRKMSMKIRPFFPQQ
T1 sequence (P02679 27-433 limits assumed): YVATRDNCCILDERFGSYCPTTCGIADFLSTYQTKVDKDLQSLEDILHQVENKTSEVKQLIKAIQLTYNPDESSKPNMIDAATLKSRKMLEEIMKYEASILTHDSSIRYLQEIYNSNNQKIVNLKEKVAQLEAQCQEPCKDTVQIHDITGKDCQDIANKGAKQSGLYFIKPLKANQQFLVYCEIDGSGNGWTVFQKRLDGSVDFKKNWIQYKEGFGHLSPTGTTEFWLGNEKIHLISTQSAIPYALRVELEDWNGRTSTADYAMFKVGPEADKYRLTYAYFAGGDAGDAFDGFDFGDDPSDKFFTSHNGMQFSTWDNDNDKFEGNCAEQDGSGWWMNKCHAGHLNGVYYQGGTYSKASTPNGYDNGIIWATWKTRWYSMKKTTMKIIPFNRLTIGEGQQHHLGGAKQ
Briefly: Fibrinogen binding assay by ELISA. Particulars: plate coated with 1 mg/ml fibrinogen, various concentrations, anti-His6-peroxidase detection. The procedure:
(§1) A polystyrene 96-well plate (Nunc® Maxisorp EUSA-plates) was coated with 1 mg/ml fibrinogen (Tisseel®, Baxter AG, Vienna) overnight at 4° C. and then blocked with blocking solution (PBS+1% BSA) for 2 hours at room temperature CRT). After washing three times with PBS, purified peptides were added in various dilutions to the plate and incubated for 1 hour at RT. After the three times washing with PBS, a monoclonal anti-His6-peroxidase antibody (Sigma-Aldrich, Vienna), diluted in PBS+0.1% Tween (Sigma-Aldrich, Vienna) was added and incubated for 1 hour at RT. Finally, the plate was washed three times with PBS again and wells were incubated with o-phenylenediaminehydrochlorid substrate. Absorbance was measured at 492 nm and 620 nm. For fibrin binding analysis, the plate was first coated with fibrinogen overnight at 4° C. and then incubated with 10 I.U./ml thrombin (Tisseel, Baxter AG, Vienna) for 30 minutes at 37° C. The following procedure was the same as described above. For the surface plasmon resonance (SPR) method fibrinogen was coupled to a gold sensor chip (10% COOH—(PEG)6-C11—SH, 90% OH(PEG)3-C11—SH; Reichert Analytical, NY, USA) by amine chemistry using EDC (1-ethyl-3-[3-dimethylaminopropyl]carbodiimide hydrochloride) and NHS (N-hydroxysuccinimide) (Pierce, Ill., USA). Uncoupled sites on the gold sensor chip were blocked with 1 M ethanolamine pH 8.5 (Sigma-Aldrich, MO, USA). The purified recombinant proteins and peptides were passed over the chip's surface at a flow rate of 0.4 ml/min to 0.8 ml/min and allowed to interact. The signals were detected and recorded at the Reichert SR7000 Surface Plasmon Resonance Analytical Instrument (Reichert Analytical, NY, USA). After each measurement the sensor chip surface was regenerated by a pulse with 100 mM phosphoric acid (Mallinckrodt Chemicals, NJ, USA) after each application of the samples. Association and dissociation signals were fitted to one association curve using a prism software calculation program.
Purified, proteins and peptides in different concentrations were used for testing the binding affinity to fibrinogen and fibrin (FIG. 5).
In general terms: ELISA stands for enzyme-linked immunosorbent assay.

The target in experiment [2] is T1, fibrinogen. Briefly: Surface plasmon resonance (SPR) binding to fibrinogen coupled to gold sensor chip. Particulars: for binding signal (SPR): fibrinogen on sensor chip, fitted association curves. The procedure:
as §1

In experiment [3] the test system is mouse myoblast cell line (C2C12). Nature of the experiment: Biological activity: viability (MTT) assay of mouse myoblast C2C12 cells. The format is cell-based. Conditions: for proliferative activity / cell growth effect: 48 hours, DMEM+1% FCS, MTT. The procedure:
A moose myoblast cell line (C2C12; ECACC (Sigma-Aldrich, Vienna)) was grown in Dulbecco's Modified Eagle Medium (DMEM) with 10% fetal calf serum (FCS). At 50-60% confluence cells were trypsinized and transferred to a 24-well plate (1×10^4/well).
Following a 48-hour-culture period at 37° C., cells were washed with DMEM only and then covered with medium (DMEM+1% FCS) containing various concentrations of hFGF-2 or hFGF-2 peptides. After 48 hours number of viable cells was determined by adding 3-(4,5-dimethylthiazol-2-yl)-2,5-diphenyltetrazolium bromide (MTT, Sigma-Aldrich, Vienna) as previously described {M05}.

“Also recorded” adds a separate entry of the source.

The source of these data is patent publication US20120316113A1, “FGF BASED FIBRIN BINDING PEPTIDES” (Baxter Healthcare S.A., priority 2011, published 2012).

In the case of “EDGRLLASKCVTDECFFFERLESNNYNTYRSRHHHHH (EDGRLLASKCVTDECFFFERLESNNYNTYRSRHHHHH; synthetic peptide pep 3 (37 aa), peptide #3, pep3 with C-terminus 5x HIS-tag) [also expressed recombinantly]”, the “binding affinity to fibrinogen” value in experiment [1] is “high affinity”. Further, the “binding signal (SPR)” value in experiment [2] was “weak and short binding signals”. Further, in experiment [3] (relative to full length hFGF-2), the “activity retained relative to the full length protein” value was “approximately 50%”.
As to “FERLESNNYN TYRSRHHHHH (FERLESNNYNTYRSRHHHHH; synthetic peptide pep 5 (20 aa), peptide #5, pep5 with C-terminus 5x HIS-tag)”, the “binding affinity to fibrinogen” value in experiment [1] is recorded as “nearly no binding affinity”; in experiment [1] (listed as Pep5) it was “little binding affinity”. Also, in experiment [2], the “binding signal (SPR)” value was “weak and short binding signals”. Also, in experiment [3], the “proliferative activity / cell growth effect” value is “did not stimulate C2C12 cell growth; also recorded: little biological activity”.
On to “KCVTDECFFF ERLESNNYNT YRSRHHHHH (KCVTDECFFFERLESNNYNTYRSRHHHHH; synthetic peptide pep 4 (29 aa), peptide #4, pep4 with C-terminus 5x HIS-tag)”, for which, in experiment [1], the “binding affinity to fibrinogen” value was “significantly lower binding”. In addition, the “binding characteristics to fibrinogen (SPR)” value in experiment [2] (compared to full-length recombinant hFGF-2) is “confirmed the binding affinity to fibrinogen”. Besides, the “binding signal (SPR)” value in experiment [2] is on record as “significantly lower compared to hFGF-2 but more consistently over a longer period of 300 seconds; also recorded: lower binding signals than that of hFGF-2”. Moreover, in experiment [3], the “proliferative activity / cell growth effect” value was “less activity, but similar to full length hFGF-2”.
